In patent publication US6372467:

Key:
[1] = biological target: Glutathione-S-transferase (GST)-tagged S6

Row | Protein | in vitro kinase assay (phosphorylation of GST-S6 by anti-HA immunoprecipitates) [1] | in vitro kinase assay (screen of substrates) (histone H2B)
1 | hemagglutinin (HA)-tagged p54^S6K (protein) MAAVFDLDLETEEGSEGEGEPELSPADACPLAELRAAGLEPVGHYEEVELTETSVNVGPERIGPHCFELLRVLGKGGYGKVFQVRKVQGTNLGKIYAMKVLRKAKIVRNAKDTAHTRAERNILESVKHPFIVELAYAFQTGGKLYLILECLSGGELFTHLEREGIFLEDTACFYLAEITLALGHLHSQGIIYRDLKPENIMLSSQGHIKLTDFGLCKESIHEGAVTHTFCGTIEYMAPEILVRSGHNRAVDWWSLGALMYDMLTGSPPFTAENRKKTMDKIIRGKLALPPYLTPDARDLVKKFLKRNPSQRIGGGPGDAADVQRHPFFRHMNWDDLLAWRVDPPFRPCLQSEEDVSQFDTRFTRQTPVDSPDDTALSESANQAFLGFTYVAPSVLDSIKEGFSFQPKLRSPRRLNSSPRVPVSPLKFSPFEGFRPSPSLPEPTELPLPPLLPPPPPSTTAPLPIRPPSGTKKSKRGRGRPGR | p54^S6K kinase activity towards S6 was stimulated by serum treatment of the cells | p54^S6K can phosphorylate both S6 and histone H2B
2 | HA-p54^S6K KR (protein) MAAVFDLDLETEEGSEGEGEPELSPADACPLAELRAAGLEPVGHYEEVELTETSVNVGPERIGPHCFELLRVLGKGGYGKVFQVRKVQGTNLGKIYAMRVLRKAKIVRNAKDTAHTRAERNILESVKHPFIVELAYAFQTGGKLYLILECLSGGELFTHLEREGIFLEDTACFYLAEITLALGHLHSQGIIYRDLKPENIMLSSQGHIKLTDFGLCKESIHEGAVTHTFCGTIEYMAPEILVRSGHNRAVDWWSLGALMYDMLTGSPPFTAENRKKTMDKIIRGKLALPPYLTPDARDLVKKFLKRNPSQRIGGGPGDAADVQRHPFFRHMNWDDLLAWRVDPPFRPCLQSEEDVSQFDTRFTRQTPVDSPDDTALSESANQAFLGFTYVAPSVLDSIKEGFSFQPKLRSPRRLNSSPRVPVSPLKFSPFEGFRPSPSLPEPTELPLPPLLPPPPPSTTAPLPIRPPSGTKKSKRGRGRPGR | The KR mutation of p54^S6K abolished the kinase activity in an in vitro kinase assay | –
